In patent US7211395 (dated 2007):
Bridges are numbered along the chain shown (N, C = ends). [ ]: non-standard residue; d: D form. Ahx = NCCCCCC(=O)O

Columns and labels:
[1] = target: T1, human serum albumin (HSA) (human, UniProt P02768); assay: FP, PBS
[2] = target: T1, human serum albumin (HSA); assay: FP
[3] = target: T1, human serum albumin (HSA); assay: FP, pH 7.4, 0.14 M NaCl
[4] = target: T1, human serum albumin (HSA); assay: FP, pH 7.4, 0.14 M NaCl, 0.1% caprylate
[5] = target: T1, human serum albumin (HSA); assay: FP, pH 6.2, 0.14 M NaCl
[6] = target: T1, human serum albumin (HSA); assay: FP, PBS; remark: listed apart in the source
[7] = target: T1, human serum albumin (HSA); assay: FP, pH 9.1, 0.14 M NaCl

Kd [1]	Kd [5]	Binder	further results
30 µM	–	Ac-AGWTTCHIYDWFCSSSGTGGGK-NH2 (disulfide 6-13 (inferred); also: fluorescein label, position not given here) [DX-1175]	–
> 10 µM	–	Ac-AGKWYCAWDPLVCEIFGTGGGK-NH2 (disulfide 6-13 (inferred); also: fluorescein label, position not given here) [DX-1173]	–
> 10 µM	–	Ac-GDFSLCWIVDEDGTKWCLPDPGGGK-NH2 (disulfide 6-17 (inferred); also: fluorescein label, attachment site not given here) [DX-997]	–
42 µM	–	Ac-GDDSMCITWPFKRPWPCANDPGGGK-NH2 (disulfide 6-17 (inferred); also: fluorescein label, position not given here) [DX-1163]	–
> 10 µM	–	Ac-GDSFCVTYIGTWETVCKRSDPGGGK-NH2 (disulfide 5-16 (inferred); also: fluorescein label, position not given here) [DX-1089]	–
–	–	Ac-AEGTGDFWFCDRIAWYPQHLCGGGK-NH2 (disulfide 10-21 (inferred)) [DX-236 truncation SEQ 42]	Kd [2]: 8.9 µM
> 10 µM	–	Ac-GDRNMCKFSWIRSPAFCARADPGGGK-NH2 (disulfide 6-17 (inferred); also: fluorescein label, attachment site not given here) [DX-321 (GD...GGGK form)]	–
–	> 200 µM	Ac-AEGTGSWKVCDHFFCLSPAPE[Ahx]K(fluorescein)-NH2 (disulfide 10-15 (inferred)) [DX-297]	Kd [3]: > 200 µM; Kd [4]: > 200 µM
–	> 100 µM	Ac-AEGTGSHVGCNNALCMQYAPE[Ahx]K(fluorescein)-NH2 (disulfide 10-15 (inferred)) [DX-296]	Kd [4]: > 200 µM
–	–	Ac-GDPRSCVEKYYWDVLICGFFDPGGGK-NH2 (disulfide 6-17 (inferred); also: fluorescein label, position not given here) [DX-1169]	binding result [6]: no binding
–	> 200 µM	Ac-AEGTGSNHGCWHFSCIWDAPE[Ahx]K(fluorescein)-NH2 (disulfide 10-15 (inferred)) [DX-298]	Kd [7]: > 200 µM
153 µM	–	Ac-AGLEYCFYQWWGCPHAGTGGGK-NH2 (disulfide 6-13 (inferred); also: fluorescein label, position not given here) [DX-1177]	–
–	> 200 µM	Ac-AEGTGDDWQCVKDWANRRRGCMADDPE[Ahx]K(fluorescein)-NH2 (disulfide 10-21 (inferred)) [DX-319]	Kd [3]: > 200 µM
–	0.5 µM	Ac-AEGTGSVAWCTIFLCLDVAPEGGGK(fluorescein)-NH2 (disulfide 10-15 (inferred)) [DX-232]	–
> 10 µM	–	Ac-GSLWDCWLYDCEGNAPGGGK-NH2 (disulfide 6-11 (inferred); also: fluorescein label, position not given here) [DX-1093]	–
–	–	Ac-FWFCDRIAWYPQHLCEFLDPEGGGK-NH2 (disulfide 4-15 (inferred)) [DX-236 truncation SEQ 39]	Kd [2]: 8.9 µM
> 10 µM	–	Ac-GDSPYCKIALFQHFEVCAADDPGGGK-NH2 (disulfide 6-17 (inferred); also: fluorescein label, position not given here) [DX-1167]	–
–	> 200 µM	Ac-AEGTGDDWDCVTRWANRDQQCWALDPE[Ahx]K(fluorescein)-NH2 (disulfide 10-21 (inferred)) [DX-315]	Kd [4]: > 100 µM
–	> 100 µM	Ac-AEGTGSFKICDQWFCLMPAPE[Ahx]K(fluorescein)-NH2 (disulfide 10-15 (inferred)) [DX-295]	–
–	> 200 µM	Ac-AEGTGDDWDCVTDWANRHQHCWALDPE[Ahx]K(fluorescein)-NH2 (disulfide 10-21 (inferred)) [DX-317]	–
–	–	Ac-GDSDFCDTPYWRDLWQCNSPDPGGGK-NH2 (disulfide 6-17 (inferred); also: fluorescein label, position not given here) [DX-1087]	binding result [6]: no binding
165 µM	–	Ac-GSRSFCMDWPNHRDCDYSAPGGGK-NH2 (disulfide 6-15 (inferred); also: fluorescein label, position not given here) [DX-1171]	–
> 10 µM	–	Ac-GDLRSCFTYYPFTTFSCSPADPGGGK-NH2 (disulfide 6-17 (inferred); also: fluorescein label, position not given here) [DX-1091]	–
–	80 µM	Ac-AEGTGDDWDCVTRWANRDQQCWGPDPE[Ahx]K(fluorescein)-NH2 (disulfide 10-21 (inferred)) [DX-313]	Kd [7]: 90 µM; Kd [3]: > 200 µM
4 µM	–	Ac-GDLRDCQTTWPFTMMQCPNNDPGGGK-NH2 (disulfide 6-17 (inferred); also: fluorescein label, position not given here) [DX-1002]	–
> 10 µM	–	Ac-GDNDGCTDTNWSWMFDCPPLDPGGGK-NH2 (disulfide 6-17 (inferred); also: fluorescein label, position not given here) [DX-1165]	–
–	–	Ac-GDRWFCDSAYWQEIPACARDDPGGGK-NH2 (disulfide 6-17 (inferred); also: fluorescein label, position not given here) [DX-1085]	binding result [6]: no binding
185 µM	–	Ac-AGYQFCTWDPIFCGWHGTGGGK-NH2 (disulfide 6-13 (inferred); also: fluorescein label, position not given here) [DX-1179]	–
